Results on one molecule are retold here after patent US20120107364A1 (ACTGEN, published 2012).

Common to all, as to test: flow cytometry on Ba/F3 cells expressing the truncated PODXL2
Assay [1] deals with T1, PODXL2, positions 1 to 410 (human, UniProt O00592 23-442).
T1 construct: Encoded as positions 1-410 in pMX-SST and expressed on Ba/F3 cells; The vector-encoded part is not described; also called R410
T1 sequence: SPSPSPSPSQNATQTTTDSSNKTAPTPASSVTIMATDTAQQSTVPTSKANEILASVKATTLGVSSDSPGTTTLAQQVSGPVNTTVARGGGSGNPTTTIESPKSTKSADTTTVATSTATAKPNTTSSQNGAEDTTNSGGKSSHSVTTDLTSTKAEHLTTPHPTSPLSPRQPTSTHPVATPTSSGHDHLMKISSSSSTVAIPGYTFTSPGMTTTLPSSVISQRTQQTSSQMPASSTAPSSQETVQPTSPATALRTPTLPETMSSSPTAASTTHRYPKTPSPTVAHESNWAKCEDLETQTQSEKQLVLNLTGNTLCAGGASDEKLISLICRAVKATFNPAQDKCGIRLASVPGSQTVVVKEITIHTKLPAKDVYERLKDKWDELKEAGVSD
The protocol: (§1) To each sample of the cell suspension, 50 μl of the hybridoma culture supernatant or 2-μg/ml of the purified antibody (hereinafter, referred to as an “antibody solution”) was added, and the antibody was reacted with the cells. As an isotype control of the antibody solution, a wash buffer containing 2 μg/ml of each of mouse IgG1 (BioLegend, 400412), mouse IgG2a (BioLegend, 400224), and mouse IgG2b (BioLegend, 400324) was used. The hybridoma culture supernatant was reacted with the target cells at room temperature for 30 minutes, followed by centrifugation at 700×g for 2 minutes. Then, a culture supernatant was removed. Further, 100 μl of a wash buffer was added, followed by centrifugation at 700×g for 2 minutes again. A supernatant was removed. Then, the cells were washed.
(§2) Next, to the cell pellets after the washing, 50 μl of Goat anti-mouse IgG, F(ab′) 2-PE (PE=phycoerythrin, Beckman Coulter, IM0855) diluted 200-fold with a wash buffer was added as a secondary antibody for detection, and reacted in the dark at room temperature for 30 minutes. The reaction was followed by centrifugation at 700×g for 2 minutes. A supernatant was removed. Further, 100 μl of a wash buffer was added, followed by centrifugation at 700×g for 2 minutes again. A supernatant was removed. Then, the cells were washed. Thereafter, the cells were suspended in an appropriate amount of a wash buffer. The reactivity between the antibody and the cells was analyzed by a flow cytometer (Beckman Coulter, FC500 MPL).
(§3) Thereafter, by the same method as in Example 1 (4) (the virus packaging and thereafter), Ba/F3 cells containing the PODXL2 gene sequences of various chain lengths were prepared. Further, by the same method as in Example 4, the reactivity between the ACT36-27_{—}5D1 antibody and the Ba/F3 cells expressing the PODXL2 molecules of various chain lengths was analyzed by a flow cytometer (FIG. 10).

The target of assay [2] is T2, PODXL2, positions 1 to 370 (human, UniProt O00592 23-402).
T2 construct: One of the 14 C-terminal truncations; Expressed on Ba/F3 cells; also called R370
T2 sequence: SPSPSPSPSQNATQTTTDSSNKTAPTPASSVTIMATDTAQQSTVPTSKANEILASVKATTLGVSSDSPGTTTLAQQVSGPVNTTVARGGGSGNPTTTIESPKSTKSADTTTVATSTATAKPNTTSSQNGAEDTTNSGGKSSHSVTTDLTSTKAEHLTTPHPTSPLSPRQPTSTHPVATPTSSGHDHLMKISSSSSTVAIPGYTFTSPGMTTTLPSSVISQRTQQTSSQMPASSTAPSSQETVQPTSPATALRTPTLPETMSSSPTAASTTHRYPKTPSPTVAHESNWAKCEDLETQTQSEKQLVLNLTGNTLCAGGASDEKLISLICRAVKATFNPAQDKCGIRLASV
On the procedure:
as §1, §2, §3

Assay [3] has as its target T3, PODXL2, positions 1 to 390 (human, UniProt O00592 23-422).
T3 construct: One of the 14 C-terminal truncations in 10-residue steps; Expressed on Ba/F3 cells; also called R390
T3 sequence: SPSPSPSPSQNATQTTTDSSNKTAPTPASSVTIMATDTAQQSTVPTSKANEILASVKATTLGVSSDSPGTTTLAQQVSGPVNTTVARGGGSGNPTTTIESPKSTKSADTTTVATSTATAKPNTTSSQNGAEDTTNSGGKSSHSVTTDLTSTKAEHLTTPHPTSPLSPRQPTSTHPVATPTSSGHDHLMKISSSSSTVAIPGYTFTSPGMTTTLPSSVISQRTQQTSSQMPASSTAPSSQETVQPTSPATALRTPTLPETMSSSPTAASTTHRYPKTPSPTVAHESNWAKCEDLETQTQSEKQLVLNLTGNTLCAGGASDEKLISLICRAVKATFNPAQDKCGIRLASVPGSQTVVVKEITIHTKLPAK
On the procedure:
as §1, §2, §3

Assay [4] has as its target T4, PODXL2, positions 1 to 310 (human, UniProt O00592 23-342).
T4 construct: One of the 14 C-terminal truncations; Expressed on Ba/F3 cells; also called R310
T4 sequence: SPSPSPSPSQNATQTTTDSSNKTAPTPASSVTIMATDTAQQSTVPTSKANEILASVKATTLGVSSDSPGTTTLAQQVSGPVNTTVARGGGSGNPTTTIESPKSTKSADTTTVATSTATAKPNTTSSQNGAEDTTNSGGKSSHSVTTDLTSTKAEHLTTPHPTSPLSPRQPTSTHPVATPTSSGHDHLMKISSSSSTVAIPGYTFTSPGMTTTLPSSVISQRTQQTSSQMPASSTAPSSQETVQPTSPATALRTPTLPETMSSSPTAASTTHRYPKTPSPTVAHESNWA
On the procedure: as §1, §2, §3

The target of assay [5] is T5, PODXL2, positions 1 to 380 (human, UniProt O00592 23-412).
T5 construct: One of the 14 C-terminal truncations; Expressed on Ba/F3 cells; also called R380
T5 sequence: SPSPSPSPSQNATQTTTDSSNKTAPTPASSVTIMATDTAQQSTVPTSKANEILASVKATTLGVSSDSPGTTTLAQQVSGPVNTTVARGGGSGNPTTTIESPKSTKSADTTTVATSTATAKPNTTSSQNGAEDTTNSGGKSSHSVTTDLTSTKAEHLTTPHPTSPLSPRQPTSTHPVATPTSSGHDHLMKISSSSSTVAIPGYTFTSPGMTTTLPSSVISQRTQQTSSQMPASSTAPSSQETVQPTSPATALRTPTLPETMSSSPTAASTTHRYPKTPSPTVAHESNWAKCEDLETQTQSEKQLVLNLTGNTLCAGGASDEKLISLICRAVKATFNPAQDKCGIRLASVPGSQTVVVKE
The protocol: as §1, §2, §3

B1: ACT36-27-5D1 antibody (antibody, V domains shown)
VH: EVQLQQSGPELVKPGASVKMSCKASGYTFTSYVMHWVKQKPGQGLEWIGYIHPYNDGIKYNEKFKGKATLTSDKSSSTAYMDLSSLTSEDSAVYYCARSWDWYFDVWAAGTTVTVSS
VL: QIVLTQSPAIMSASPGEKVSMTCSASSSVSYMHWYQQKSGTSPKRWIYDTSKLASGVPARFSGSGSGTSYSLTISSMEAEDAATYYCLQWSSNPPTFGGGTKLE
notes: also called anti-PODXL2 antibody ACT36-27-5D1; anti-ACT36-27-5D1 monoclonal antibody
As for B1, the binding result in assay [1] was “binds”; in assay [2], “no binding”; in assay [3], “no binding”; in assay [4] it was “no binding”; in assay [5], “no binding”.
